Measured values published in patent US20260209325A1 (SCHOLAR ROCK, published 2026).

Key:
human pro-myostatin [1] = target: T1, human pro-myostatin (human, UniProt O14793 24-375, biotinylated (in the SPR assay)); assay: SPR Biacore 8K, biotin-antigen captured
T1 construct: Disulfide-linked homodimer; also called proGDF8 (human)

cyno pro-myostatin = target: T2, cyno pro-myostatin (cynomolgus monkey, Biotinylated for capture in the SPR assay (site not stated). The native form is a disulfide-linked homodimer, partly furin-cleaved; one chain is given.); assay: SPR Biacore 8K, biotin-antigen captured
T2 construct: also called proGDF8 (cynomolgus); cynomolgus monkey pro-myostatin

murine pro-myostatin = target: T3, murine pro-myostatin (mouse, UniProt O08689 25-376, biotinylated (in the SPR assay)); assay: SPR Biacore 8K, biotin-antigen captured
T3 construct: also called proGDF8 (mouse); mouse pro-myostatin

human pro-myostatin [2] = target: T1, human pro-myostatin; assay: cell-based or functional assay
[3] = target: T4, recombinant human latent myostatin (human, UniProt O14793 24-375, biotinylated (in the Octet pH assay only)); assay: cell-based or functional assay
human GDF-11 = human GDF-11 (human, UniProt O95390 299-407, limits assumed); assay: plate binding assay, OD 450 nm, one antibody concentration that is not given, on Hu-GDF-11 (method not described in the text)
Chain of human GDF-11 (O95390 299-407 limits assumed): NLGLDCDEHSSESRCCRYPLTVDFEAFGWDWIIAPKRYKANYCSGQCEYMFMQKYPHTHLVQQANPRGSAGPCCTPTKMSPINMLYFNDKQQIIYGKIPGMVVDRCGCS

mouse GDF-11 = mouse GDF-11 (mouse, UniProt Q9Z1W4 297-405, limits assumed); assay: plate binding assay, OD 450 nm, one antibody concentration that is not given, on Mu-GDF-11 (method not described in the text)
Chain of mouse GDF-11 (Q9Z1W4 297-405 limits assumed): as the sequence (O95390 299-407 limits assumed) above

human pro-myostatin [4] = target: T1, human pro-myostatin; assay: Ab KD, summary Table 11; method and antigen not stated there
[5] = target: T4, recombinant human latent myostatin; assay: cell-based or functional assay; remark: listed apart in the source

Binder | Kd (human pro-myostatin [1]) [nM] | koff (human pro-myostatin [1]) [s⁻¹] | kon (human pro-myostatin [1]) [M⁻¹ s⁻¹] | Kd (cyno pro-myostatin) [nM] | koff (cyno pro-myostatin) [s⁻¹] | kon (cyno pro-myostatin) [M⁻¹ s⁻¹] | Kd (murine pro-myostatin) [nM] | koff (murine pro-myostatin) [s⁻¹] | kon (murine pro-myostatin) [M⁻¹ s⁻¹] | IC50 (nM) Pro + Furin (human pro-myostatin [2]) [nM] | IC50 (nM) Latent + mTLL2 [3] [nM] | binding result (human GDF-11) | binding result (mouse GDF-11) | Kd (human pro-myostatin [4]) [nM] | mTLL2 IC50 [5] [nM]
Ab114 (antibody, human IgG4 S228P, kappa, V domains shown) VH: QVQLVQSGAEVKKPGASVKVSCKVSGGTFRSYTIHWVRQAPGKGLEWMGGMNPSSGHTIYAQKFQGRVTMTEDTSTDTAYMELSSLKSEDTAVYYCARGLDYGEGYYYYGMDVWGQGTTVTVSS VL: DIQMTQSPSSVSASVGDRVTITCRASQGISESLAWYQQKPGKAPKLLIYSASSLESGVPSRFSGSGSGTDFTLTISSLQPEDFANYYCQQGYSSPPYTFGGGTKVEIKR | 1.74 | 0.00735 | 4.23e+06 | 2.6 | 0.00908 | 3.49e+06 | 6.29 | 0.0208 | 3.31e+06 | 2.8 | 3.3 | no binding | no binding |  | 
Ab128 (antibody, human IgG4 S228P, kappa, V domains shown) VH: EVQLVESGGGLVQPGGSLRLSCTASGFTLSSYSMDWVRQAPGKGLEWVSYITGSGDTTYYADSVKGRFTISRDNAKNTLYLQMNSLRAEDTAVYYCARGFGWISGWAEDYFDYWGQGTLVTVSS VL: DIQMTQSPSSLSASVGDRVTITCQASQSVYSYLNWYQQKPGKAPKLLIYGASRLEGGVPSRFSGSGSGTDFTFTISSLQPEDIATYYCQQHSTDQRTFGGGTKVEIKR | 0.365 | 0.000463 | 1.27e+06 | 0.814 | 0.000736 | 905000 | 0.716 | 0.000655 | 914000 | 0.774 | 1.03 | no binding | no binding |  | 
Ab112 (antibody, human IgG4 S228P, kappa, V domains shown) VH: QVQLVQSGAEVKKPGASVKVSCKVSGGTFGIYAIHWVRQAPGKGLEWMGGTIPVFGTAIYAQKFQGRVTMTEDTSTDTAYMELSSLKSEDTAVYYCASLTGIAAAGTHPARGGMDVWGQGTTVTVSS VL: DIQMTQSPSSVSASVGDRVTITCRASPSISSYLAWYQQKPGKAPKLLIYAASRLQSGVPSRFSGSGSGTDFTLTISSLQPEDFANYYCQEYLSFPLTFGGGTKVEIKR | 0.561 | 0.000122 | 217000 | 0.601 | 0.000124 | 207000 | 0.748 | 0.000188 | 251000 | 1.08 | 9.22 | no binding | no binding | 3.56 | 9.22
Ab129 (antibody, human IgG4 S228P, kappa, V domains shown) VH: QVQLVQSGAEVKKPGASVKVSCKVSGFNYPRSAIHWVRQAPGKGLEWMGGINPSGEATIYAQKFQGRVTMTEDTSTDTAYMELSSLKSEDTAVYYCARDSSPQWLVTAGVYFYGMDVWGQGTTVTVSS VL: DIQMTQSPSSVSASVGDRVTITCRASQSISNWLAWYQQKPGKAPKLLIYHASTLQSGVPSRFSGSGSGTDFTLTISSLQPEDFANYYCQQYSSTPWTFGGGTKVEIKR | 2.2 | 0.000307 | 140000 | 1.3 | 0.000534 | 411000 | 4.24 | 0.000496 | 117000 | 4.31 | 3.89 |  |  |  | 
Ab141 (antibody, human IgG4 S228P, kappa, V domains shown) VH: EVQLVESGGGLVQPGGSLRLSCAASGFTFSSYGMSWVRQAPGKGLELVASFTGSGGAYYPDSVKGRFTISRDNAKNSLYLQMNSLRAEDTAVYYCARDLLIRFLEWSHYYGMDVWGQGTTVTVSS VL: DIVMTQSPLSLPVTPGEPASISCRSSQSLLHSSGHNFLHWYLQKPGQSPQLLIYEVSNRVSGVPDRFSGSGSGTDFTLKISRVEAEDVGVYYCMQQTQYPGTFGGGTKVEIKR | 0.04 | 0.000112 | 2.79e+06 | 0.0369 | 0.000103 | 2.8e+06 | 0.0531 | 0.000156 | 2.93e+06 |  | 0.139 |  |  | 0.04 | 0.139
Ab101 (antibody, human IgG4 S228P, kappa, V domains shown) VH: EVQLVESGGGLVQPGGSLRLSCAASGSAFSSYGMSWVRQAPGKGLELVASINSNGGSTYYPDSVKGRFTISRDNAKNSLYLQMNSLRAEDTAVYYCARDLLVRFLEWSHYYGMDVWGQGTTVTVSS VL: DIVMTQSPLSLPVTPGEPASISCRSSQSLLHSSGHNFLHWYLQKPGQSPQLLIYEVSNRVSGVPDRFSGSGSGTDFTLKISRVEAEDVGVYYCMQQTQYPPTFGGGTKVEIKR | 0.078 | 0.000339 | 4.37e+06 | 0.065 | 0.000317 | 4.84e+06 | 0.083 | 0.00036 | 4.34e+06 | 0.251 | 0.128 |  |  |  | 
